Results from patent US20140255299A1 (UNIVERSITY OF CENTRAL FLORIDA RESEARCH FOUNDATION, published 2014).

B1: Bax C-terminal 20-residue peptide, lysines replaced with glutamates (charge reversal mutant) (peptide)
peptide: VTIFVAGVLTASLTIWEEMG
notes: K189/K190 replaced by EE; also called CT20 Bax EE; CT20-EE
B2: Bax C-terminal 20-residue peptide (CT20p), wild type (peptide)
peptide: Ac-VTIFVAGVLTASLTIWKKMG-NH2
notes: Synthetic peptide of the last 20 amino acids of Bax; also called CT20 Bax WT; CT20 peptide
B3: Bax C-terminal 20-residue peptide, lysines replaced with leucines (charge neutralization mutant) (peptide)
peptide: VTIFVAGVLTASLTIWLLMG
notes: K189/K190 replaced by LL; also called CT20 Bax LL; CT20-LL

Target: the molecule itself
Experiment: kinetics of calcein release from lipid vesicles; peptide self-association within the membrane

| Protein | binding result |
| --- | --- |
| B1 | binds |
| B2 | binds |
| B3 | binds |
